Measured values from publication PMC4434712 (Proceedings of the National Academy of Sciences of the …, 2015).
Where two headings read alike, the source gives them in different places.

B1: Fab-94, Fab fragment of the human monoclonal antibody IgG-94 (Fab, V domains shown)
VH: EVQLVESGGGVVQPGRSLRLSCGASGFTFNTYAMHWVRQAPGKGVEWVAVVSDGGGNRYYAASVKGRFTISRDNSKNTLFLQLNTLRPEDTAVYYCARSRGNHYYYGMDVWGRGTTVTVSS
VL: DIQMTQSPSSVSASVGDRVTITCRASQGISSWLAWYQQKPGKAPKLLIYAASSLQSGVPSRFSGSGSGTDFTLTISSLQPEDFATYYCQQANNFPLTFGGGTKVEIK
B2: Fab-RC, Fab fragment of the human monoclonal antibody IgG-RC (Fab, V domains shown)
VH: QVQLVQSGAEMKKPGASVKVSCKASGYTFIGYHLHWVRQAPGQGLEWMGWINPNSGETNYAQKFQDWVTMTRDTSINTAYMELRLRSDDTAVYYCARGGMTMVRGVMMDWGQGTLVTVSS
VL: DIQMTQSPSFLSASVGDRVTITCRASQGLDNFLAWYQQKPGKAPKLLIYAASTLQRGVPSRFGGSGSGTEFTLTISSLQPEDFATYYCQQLNSYSLTFGPGTKVEIK

Key:
Test in all cases: crystal structure
[1] = molecular target: T1, VZV glycoprotein gL (varicella-zoster virus, UniProt P09308)
[2] = molecular target: T2, VZV glycoprotein gH (ectodomain, as in the gHgL crystal structures) (varicella-zoster virus, UniProt P09260)
[3] = molecular target: T1, VZV glycoprotein gL; remark: listed apart in the source
[4] = molecular target: T2, VZV glycoprotein gH (ectodomain, as in …); remark: listed apart in the source

T2 sequence (P09260 18-795): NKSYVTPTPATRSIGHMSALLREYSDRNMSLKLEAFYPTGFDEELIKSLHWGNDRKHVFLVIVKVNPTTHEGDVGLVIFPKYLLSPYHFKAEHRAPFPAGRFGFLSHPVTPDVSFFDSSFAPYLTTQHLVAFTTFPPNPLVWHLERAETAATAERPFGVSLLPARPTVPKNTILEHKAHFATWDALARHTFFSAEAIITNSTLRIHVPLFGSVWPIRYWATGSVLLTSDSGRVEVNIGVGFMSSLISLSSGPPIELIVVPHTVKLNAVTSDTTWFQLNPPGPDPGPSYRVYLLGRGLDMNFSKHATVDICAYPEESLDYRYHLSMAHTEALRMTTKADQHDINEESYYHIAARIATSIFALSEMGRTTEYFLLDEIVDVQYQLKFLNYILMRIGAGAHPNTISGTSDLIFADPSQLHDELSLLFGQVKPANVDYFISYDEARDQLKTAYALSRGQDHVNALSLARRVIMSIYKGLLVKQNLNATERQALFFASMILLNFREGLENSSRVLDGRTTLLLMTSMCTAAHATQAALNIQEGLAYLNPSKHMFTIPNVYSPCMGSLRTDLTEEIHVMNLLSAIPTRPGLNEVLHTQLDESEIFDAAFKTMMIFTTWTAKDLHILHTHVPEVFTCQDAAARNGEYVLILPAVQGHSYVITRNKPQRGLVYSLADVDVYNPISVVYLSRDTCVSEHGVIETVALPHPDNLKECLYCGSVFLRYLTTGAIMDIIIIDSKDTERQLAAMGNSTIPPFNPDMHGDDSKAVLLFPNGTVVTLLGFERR
T1 sequence (P09308 22-159): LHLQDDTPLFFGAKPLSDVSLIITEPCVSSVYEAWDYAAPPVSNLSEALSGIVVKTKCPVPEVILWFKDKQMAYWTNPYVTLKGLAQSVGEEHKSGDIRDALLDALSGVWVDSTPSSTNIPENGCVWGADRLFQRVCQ

Binder	binding result [1]	binding result [2]	binding result [3]	binding result [4]
B1	binds	binds		
B2			binds	binds
